First the molecules themselves.
B1: glmS ribozyme (parent)
chain: AUAAAAGCGCCAGAACUACAGAAAUGUAGUUGACGAGGAGGAGGUUUAUCGAAUUUUCGGCGGAUGCCUCCAAA

Details in all cases: with glucosamine-6-phosphate
Data set [1] covers variants of B1. In words: kcat; higher = faster cleavage; RNA array. The essentials:
(§1)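 Barcoded glmS ribozyme variants on sequenced MiSeq chips were transcribed in situ by E. coli RNA polymerase and tracked through a hybridised Cy3 probe at 37 °C. Glucosamine-6-phosphate (40 μM to 10 mM) in HEPES/KCl/Mg(OAc)2 buffer was flowed in, and tiles were imaged over ~14 h. Signals were normalised to baseline and to non-cleaving reference variants; per-tile medians were fit to one- or two-exponential decays to give kobs. kcat and KM came from weighted Michaelis–Menten fits across concentrations.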

The variants in data set [2] derive from B1. In words: KM; higher = weaker cofactor use; RNA array. The essentials:
as §1

In data set [3] the parent is B1. In words: self-cleavage kobs at 40 uM GlcN6P; higher = faster cleavage; RNA array. The essentials: as §1
Data set [4] covers variants of B1. In words: self-cleavage kobs at 160 uM GlcN6P; higher = faster cleavage; RNA array. The essentials:
as §1

Data set [5] covers variants of B1. In words: self-cleavage kobs at 640 uM GlcN6P; higher = faster cleavage; RNA array. The essentials:
as §1

In data set [6] the parent is B1. In words: self-cleavage kobs at 2500 uM GlcN6P; higher = faster cleavage; RNA array. The essentials:
as §1

The variants in data set [7] derive from B1. In words: self-cleavage kobs at 10000 uM GlcN6P; higher = faster cleavage; RNA array. The essentials: as §1

± gives the standard error. For some assays here: Variants at the floor of the assay were thinned out.

Consider G40A U45A, for which the kcat (in general, the maximal rate divided by the concentration of active sites) in data set [1] turned out to be 0.00316 ± 0.00068 s⁻¹. Moreover, the KM (commonly the concentration of substrate that gives half-maximal velocity) in data set [2] stood at 510 ± 160 µM. In addition, in data set [3], the “self-cleavage kobs at 40 uM GlcN6P” value worked out at 0.000251 ± 3.8e-05 s⁻¹. For the same variant, the “self-cleavage kobs at 160 uM GlcN6P” value in data set [4] was determined as 0.000585 ± 0.00027 s⁻¹. In addition, in data set [5], the “self-cleavage kobs at 640 uM GlcN6P” value worked out at 0.00157 ± 0.00029 s⁻¹. Also, in data set [6], the “self-cleavage kobs at 2500 uM GlcN6P” value is 0.00221 ± 0.00084 s⁻¹. In data set [7], the “self-cleavage kobs at 10000 uM GlcN6P” value amounted to 0.00427 ± 0.00099 s⁻¹.
Turning to C11U U55A, in data set [1], the turnover number (kcat) was found to be 0.00167 ± 0.0004 s⁻¹. Moreover, the KM in data set [2] turned out to be 1260 ± 470 µM. Besides, in data set [3], the “self-cleavage kobs at 40 uM GlcN6P” value worked out at 6.97e-05 ± 1.2e-05 s⁻¹. In data set [4], the “self-cleavage kobs at 160 uM GlcN6P” value was 0.000177 ± 3.7e-05 s⁻¹. Also, in data set [5], the “self-cleavage kobs at 640 uM GlcN6P” value stood at 0.000478 ± 9.1e-05 s⁻¹. Also, in data set [6], the “self-cleavage kobs at 2500 uM GlcN6P” value is 0.000891 ± 0.0002 s⁻¹. The “self-cleavage kobs at 10000 uM GlcN6P” value in data set [7] came out at 0.0018 ± 0.00026 s⁻¹.
Consider A39G, for which, in data set [1], the kcat was found to be 0.0923 ± 0.019 s⁻¹. Moreover, the Michaelis-Menten constant (KM) in data set [2] came to 2540 ± 580 µM. The “self-cleavage kobs at 40 uM GlcN6P” value in data set [3] amounted to 0.00154 ± 3.7e-05 s⁻¹. For the same variant, the “self-cleavage kobs at 160 uM GlcN6P” value in data set [4] was 0.00433 ± 0.00024 s⁻¹. The “self-cleavage kobs at 640 uM GlcN6P” value in data set [5] was determined as 0.0174 ± 0.0013 s⁻¹. Further, the “self-cleavage kobs at 2500 uM GlcN6P” value in data set [6] came out at 0.0472 ± 0.0047 s⁻¹. In addition, the “self-cleavage kobs at 10000 uM GlcN6P” value in data set [7] was determined as 0.075 ± 0.0037 s⁻¹.
Turning to C16U G37U, in data set [1], the turnover number (kcat) is less than 1e-05 s⁻¹. The “self-cleavage kobs at 40 uM GlcN6P” value in data set [3] was less than 1e-05 s⁻¹.
Consider G66U C68G, for which the kcat in data set [1] was 4.91e-05 ± 1.9e-05 s⁻¹. Besides, the “self-cleavage kobs at 160 uM GlcN6P” value in data set [4] was 3.35e-05 ± 1.3e-05 s⁻¹. Moreover, the “self-cleavage kobs at 640 uM GlcN6P” value in data set [5] was 8.19e-05 ± 1.4e-05 s⁻¹. Moreover, the “self-cleavage kobs at 2500 uM GlcN6P” value in data set [6] stood at 6.89e-05 ± 1.1e-05 s⁻¹.
In the case of G41C U45G G66C, the turnover number (kcat) in data set [1] is 4.62e-05 ± 1e-05 s⁻¹. For the same variant, in data set [7], the “self-cleavage kobs at 10000 uM GlcN6P” value came to 2.84e-05 ± 1.2e-05 s⁻¹.
For the variant A33C U69A, the turnover number (kcat) in data set [1] was less than 1e-05 s⁻¹. Moreover, in data set [4], the “self-cleavage kobs at 160 uM GlcN6P” value is less than 1e-05 s⁻¹. Moreover, the “self-cleavage kobs at 640 uM GlcN6P” value in data set [5] was less than 1e-05 s⁻¹.
Consider A33U U54A C68A, for which the kcat in data set [1] turned out to be 2.8e-05 ± 3.4e-06 s⁻¹.
For the variant A14C U57A U69A, the turnover number (kcat) in data set [1] turned out to be 3.51e-05 ± 1.3e-05 s⁻¹. Also, the “self-cleavage kobs at 640 uM GlcN6P” value in data set [5] turned out to be 4.77e-05 ± 2.2e-05 s⁻¹.
On to A14C C68A, for which the kcat in data set [1] was determined as 2.76e-05 ± 9.8e-06 s⁻¹. For the same variant, in data set [6], the “self-cleavage kobs at 2500 uM GlcN6P” value is 3.95e-05 ± 1.8e-05 s⁻¹.
On to G13C C67U, for which the catalytic constant (kcat) in data set [1] worked out at 4.46e-05 ± 7.3e-06 s⁻¹. In addition, in data set [6], the “self-cleavage kobs at 2500 uM GlcN6P” value turned out to be 4.34e-05 ± 1.3e-05 s⁻¹. For the same variant, the “self-cleavage kobs at 10000 uM GlcN6P” value in data set [7] was found to be 4.04e-05 ± 7.8e-06 s⁻¹.
In the case of A15G G59U, the kcat in data set [1] amounted to 0.000115 ± 2.5e-05 s⁻¹. Further, the “self-cleavage kobs at 640 uM GlcN6P” value in data set [5] stood at 2.79e-05 ± 1.3e-05 s⁻¹. For the same variant, the “self-cleavage kobs at 2500 uM GlcN6P” value in data set [6] was determined as 4.46e-05 ± 1.4e-05 s⁻¹. Moreover, the “self-cleavage kobs at 10000 uM GlcN6P” value in data set [7] came to 9.05e-05 ± 1.6e-05 s⁻¹.
For the variant U30C U56A, the kcat in data set [1] was 0.000339 ± 6.9e-06 s⁻¹. In addition, the KM in data set [2] was determined as 2910 ± 110 µM. For the same variant, the “self-cleavage kobs at 640 uM GlcN6P” value in data set [5] amounted to 6.11e-05 ± 6.9e-06 s⁻¹. Further, in data set [6], the “self-cleavage kobs at 2500 uM GlcN6P” value was determined as 0.000155 ± 1.6e-05 s⁻¹. Moreover, in data set [7], the “self-cleavage kobs at 10000 uM GlcN6P” value came to 0.000263 ± 2.4e-05 s⁻¹.
Take G32A U45A: the kcat in data set [1] is 0.00555 ± 0.00055 s⁻¹. The Michaelis constant (KM) in data set [2] was determined as 2580 ± 370 µM. For the same variant, the “self-cleavage kobs at 40 uM GlcN6P” value in data set [3] stood at 9.16e-05 ± 1.5e-05 s⁻¹. Moreover, the “self-cleavage kobs at 160 uM GlcN6P” value in data set [4] came to 0.000267 ± 6.7e-05 s⁻¹. Further, the “self-cleavage kobs at 640 uM GlcN6P” value in data set [5] is 0.00117 ± 0.00024 s⁻¹. Also, the “self-cleavage kobs at 2500 uM GlcN6P” value in data set [6] amounted to 0.003 ± 0.001 s⁻¹. Also, the “self-cleavage kobs at 10000 uM GlcN6P” value in data set [7] is 0.00438 ± 0.00057 s⁻¹.
Consider U45A U65C, for which, in data set [1], the kcat is 0.00412 ± 0.0005 s⁻¹. The Michaelis constant (KM) in data set [2] is 1770 ± 290 µM. Moreover, the “self-cleavage kobs at 40 uM GlcN6P” value in data set [3] was 9.95e-05 ± 1.1e-05 s⁻¹. The “self-cleavage kobs at 160 uM GlcN6P” value in data set [4] worked out at 0.000318 ± 6.3e-05 s⁻¹. The “self-cleavage kobs at 640 uM GlcN6P” value in data set [5] amounted to 0.000994 ± 0.00014 s⁻¹. For the same variant, the “self-cleavage kobs at 2500 uM GlcN6P” value in data set [6] amounted to 0.00204 ± 0.00054 s⁻¹. The “self-cleavage kobs at 10000 uM GlcN6P” value in data set [7] came out at 0.00374 ± 0.00047 s⁻¹.
Regarding U55G C70G, the kcat in data set [1] worked out at 0.000127 ± 2.5e-05 s⁻¹. For the same variant, the “self-cleavage kobs at 40 uM GlcN6P” value in data set [3] worked out at 2.75e-05 ± 1.4e-05 s⁻¹. Moreover, the “self-cleavage kobs at 160 uM GlcN6P” value in data set [4] is 7.54e-05 ± 1.6e-05 s⁻¹. Also, the “self-cleavage kobs at 640 uM GlcN6P” value in data set [5] was 0.00014 ± 1.9e-05 s⁻¹. In addition, the “self-cleavage kobs at 2500 uM GlcN6P” value in data set [6] was determined as 0.000184 ± 3.8e-05 s⁻¹. Also, the “self-cleavage kobs at 10000 uM GlcN6P” value in data set [7] worked out at 9.38e-05 ± 1.8e-05 s⁻¹.
As for U47C G66U, in data set [1], the catalytic constant (kcat) came out at 2.83e-05 ± 1.3e-05 s⁻¹. In data set [3], the “self-cleavage kobs at 40 uM GlcN6P” value is less than 1e-05 s⁻¹.

For the origin of these results see the supplement of paper PMC7125110.
